The results in this text go back to PMC3443378 (Molecular Microbiology, 2012).

Targets include PrfA S71L (Listeria monocytogenes P14, UniProt P22262 1-237, S71L); PrfA Y63W (Listeria monocytogenes P14, UniProt P22262 1-237, Y63W); PrfA*sup G145S/E173G (Listeria monocytogenes P14, UniProt P22262 1-237, G145S;E173G); PrfA WT (Listeria monocytogenes P14, UniProt P22262 1-237); PrfA Y63W/G145S (Listeria monocytogenes P14, UniProt P22262 1-237, Y63W;G145S); PrfA E36R (Listeria monocytogenes P14, UniProt P22262 1-237, E36R); PrfA I69W (Listeria monocytogenes P14, UniProt P22262 1-237, I69W); PrfA V80L (Listeria monocytogenes P14, UniProt P22262 1-237, V80L); PrfA E36Q (Listeria monocytogenes P14, UniProt P22262 1-237, E36Q); PrfA S71L/G145S (Listeria monocytogenes P14, UniProt P22262 1-237, S71L;G145S); PrfA L120V (Listeria monocytogenes P14, UniProt P22262 1-237, L120V); PrfA L48F (Listeria monocytogenes P14, UniProt P22262 1-237, L48F); PrfA L48F/G145S (Listeria monocytogenes P14, UniProt P22262 1-237, L48F;G145S); PrfA F29M (Listeria monocytogenes P14, UniProt P22262 1-237, F29M).

Experiment in all cases: SPR

B1: PplcA/hly PrfA box 40-mer (dsDNA)
DNA 1: TGTCCCTTTATCGTCGTTAACAAATGTTAATGCCTCGACA
DNA 2: TGTCGAGGCATTAACATTTGTTAACGACGATAAAGGGACA
As for B1, the Kd with PrfA S71L was 695 42; with PrfA Y63W, 1160 86; with PrfA*sup G145S/E173G it was 10500 317; in the series with PrfA WT, 1100 49; in the series with PrfA Y63W/G145S it was 9 1; in the series with PrfA E36R it was 1440 13. Besides, the Kd with PrfA I69W was 347 43; with PrfA V80L, 1780 47; in the series with PrfA E36Q it was 1360 11; in the series with PrfA S71L/G145S, 75 1; in the series with PrfA L120V it was 3120 37; with PrfA L48F, 5260 101. For the same molecule, the values for the Kd in the series with PrfA L48F/G145S and with PrfA F29M were 15 1 and 288 45, respectively.

B2: PactA PrfA box 40-mer (dsDNA)
DNA 1: GGTCGGAGTTAACTGATTAACAAATGTTAGAGAAAACTTA
DNA 2: TAAGTTTTCTCTAACATTTGTTAATCAGTTAACTCCGACC
Turning to B2, the Kd in the series with PrfA S71L was 741 59; with PrfA Y63W, 1660 14; with PrfA*sup G145S/E173G it was 32000 528; with PrfA WT, 1360 24; in the series with PrfA Y63W/G145S, 29 1; with PrfA E36R it was 1080 10. Also, the Kd is 392 76 with PrfA I69W; 1400 54 in the series with PrfA V80L; 801 67 with PrfA E36Q; 67 1 with PrfA S71L/G145S; 1590 17 in the series with PrfA L120V; 20800 262 with PrfA L48F. Besides, the Kd with PrfA L48F/G145S was 239 60; in the series with PrfA F29M, 267 15.
